Data from patent publication US20050282743A1, “Molecular interactions in cells” (Arbor Vita Corporation, priority 2001, published 2005).
Ends that are not written are not given here. * marks the point of attachment. Biotin = O=C1N[C@H]2[C@H](CS[C@H]2CCCCC(=O)*)N1

How the values were obtained:
Type in all cases: binding
[1] = target: T1, PDZ protein (GST-PDZ fusion) (Homo sapiens, UniProt Q6P0Q8); test: G' assay (10 uM PL peptide), results of TABLE 7 and TABLE 12
T1 construct: made in house; host or cells: E. coli (DH5alpha, BL21 or JM109)
From the text: (§1) Each page of TABLE 7 and 12 includes seven columns. The columns in each table are numbered from left to right such that the left-most column in each table is column 1 and the right-most column in each table is column 7. Thus, the first column in each table is labeled “AVC ID”; this column simply lists an internal reference number used to refer to the carboxyl-terminal amino acids of the PL proteins listed in the second column. […] All PL peptides were biotinylated at the amino-terminus and the sequences of these PL peptides are presented in TABLE 8 (see end of specification).
(§2) This column provides the gene name for the PDZ portion of the GST-PDZ fusion that interacts with the PDZ-ligand to the left. For PDZ domain-containing proteins with multiple domains, the domain number is listed to the right of the PDZ (i.e., in column 5 labeled “PDZ Domain”), and indicates the PDZ domain number when numbered from the amino-terminus to the carboxy-terminus.
(§3) The third column labeled “Peptide Optimal Concentration” in the tables is a number reflective of the binding interaction between the PL protein and PDZ protein. […] The column labeled “Protein Optimal Concentration” refers to the protein concentration used to assay PL interaction (in ug/ml); a ‘0’ is indicative of 5 ug/ml protein concentration; any other value represents the concentration (in ug/ml) used to determine the dissociation constant for a given interaction.
(§4) Finally, the seventh column labeled “Classification” is another measure of the level of binding. In particular, it provides an absorbance value at 450 nm which indicates the amount of PL peptide bound to the PDZ protein. The following numerical values have the following meanings: ‘1’—A450 nm 0-1; ‘2’—A450 nm 1-2; ‘3’—A450 nm 2-3; ‘4’—A450 nm 3-4; ‘5’—A450 nm of 4 more than 2× repeated; ‘0’—A450 nm 0, i.e., not found to interact. Thus, higher numbers indicate stronger interactions.
(§5) For convenience, the assay conditions described in this section are referred to as the “G′ assay” and the “G″ assay,” with the specific conditions described in the preceding section on G assays being referred to as the “G^0 assay.” The “G′ assay” is identical to the “G^0 assay” except at step (2) the peptide concentration is 10 uM instead of 20 uM.

[2] = target: T2, PDZ protein (GST-PDZ fusion) (Homo sapiens, UniProt Q9NZN5); test: as above; conditions: PDZ KIAA0382, PDZ Domain 1
T2 construct: made in house; host or cells: E. coli (DH5alpha, BL21 or JM109)
From the text: as §1, §2, §3, §4, §5

[3] = test system: PDZ protein (GST-PDZ fusion); test: as above; conditions: PDZ SHANK, PDZ Domain 1
From the text: as §1, §2, §3, §4, §5

[4] = target: T3, PDZ protein (GST-PDZ fusion) (Homo sapiens, UniProt Q9P202); test: as above; conditions: PDZ KIAA1526, PDZ Domain 1
T3 construct: made in house; host or cells: E. coli (DH5alpha, BL21 or JM109)
T3 sequence (Q9P202 1-907): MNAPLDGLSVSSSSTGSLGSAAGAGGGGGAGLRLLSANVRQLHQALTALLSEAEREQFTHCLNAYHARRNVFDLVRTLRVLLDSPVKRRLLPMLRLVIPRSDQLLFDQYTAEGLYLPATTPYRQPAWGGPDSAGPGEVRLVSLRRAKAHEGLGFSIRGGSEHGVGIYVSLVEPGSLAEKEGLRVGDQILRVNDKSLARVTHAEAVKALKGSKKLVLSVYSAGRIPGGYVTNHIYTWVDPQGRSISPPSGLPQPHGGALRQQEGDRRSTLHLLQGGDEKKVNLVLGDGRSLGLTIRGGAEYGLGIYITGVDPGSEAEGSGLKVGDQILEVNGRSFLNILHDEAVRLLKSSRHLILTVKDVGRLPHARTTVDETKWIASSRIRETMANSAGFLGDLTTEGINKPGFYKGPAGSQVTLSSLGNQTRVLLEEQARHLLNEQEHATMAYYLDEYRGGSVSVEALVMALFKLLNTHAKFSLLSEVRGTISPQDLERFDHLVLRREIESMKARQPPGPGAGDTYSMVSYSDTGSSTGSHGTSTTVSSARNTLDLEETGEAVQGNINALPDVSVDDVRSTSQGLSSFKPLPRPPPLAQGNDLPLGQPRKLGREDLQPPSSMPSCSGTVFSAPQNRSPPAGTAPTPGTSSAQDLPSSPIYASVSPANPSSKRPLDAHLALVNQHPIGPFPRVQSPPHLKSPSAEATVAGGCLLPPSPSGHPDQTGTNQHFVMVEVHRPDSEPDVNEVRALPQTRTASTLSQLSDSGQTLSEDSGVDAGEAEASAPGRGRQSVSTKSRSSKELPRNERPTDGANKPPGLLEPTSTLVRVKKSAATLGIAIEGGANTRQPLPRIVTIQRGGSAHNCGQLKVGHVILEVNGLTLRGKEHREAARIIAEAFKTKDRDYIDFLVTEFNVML
From the text: as §1, §2, §3, §4, §5

[5] = target: T4, PDZ protein (GST-PDZ fusion) (Homo sapiens, UniProt Q12959); test: as above; conditions: PDZ DLG1, PDZ Domain 2
T4 construct: made in house; host or cells: E. coli (DH5alpha, BL21 or JM109)
From the text: as §1, §2, §3, §4, §5

[6] = target: T5, PDZ protein (GST-PDZ fusion) (Homo sapiens, UniProt Q5TCQ9); test: as above; conditions: PDZ KIAA1634, PDZ Domain 1
T5 construct: made in house; host or cells: E. coli (DH5alpha, BL21 or JM109)
T5 sequence (Q5TCQ9 1-1481): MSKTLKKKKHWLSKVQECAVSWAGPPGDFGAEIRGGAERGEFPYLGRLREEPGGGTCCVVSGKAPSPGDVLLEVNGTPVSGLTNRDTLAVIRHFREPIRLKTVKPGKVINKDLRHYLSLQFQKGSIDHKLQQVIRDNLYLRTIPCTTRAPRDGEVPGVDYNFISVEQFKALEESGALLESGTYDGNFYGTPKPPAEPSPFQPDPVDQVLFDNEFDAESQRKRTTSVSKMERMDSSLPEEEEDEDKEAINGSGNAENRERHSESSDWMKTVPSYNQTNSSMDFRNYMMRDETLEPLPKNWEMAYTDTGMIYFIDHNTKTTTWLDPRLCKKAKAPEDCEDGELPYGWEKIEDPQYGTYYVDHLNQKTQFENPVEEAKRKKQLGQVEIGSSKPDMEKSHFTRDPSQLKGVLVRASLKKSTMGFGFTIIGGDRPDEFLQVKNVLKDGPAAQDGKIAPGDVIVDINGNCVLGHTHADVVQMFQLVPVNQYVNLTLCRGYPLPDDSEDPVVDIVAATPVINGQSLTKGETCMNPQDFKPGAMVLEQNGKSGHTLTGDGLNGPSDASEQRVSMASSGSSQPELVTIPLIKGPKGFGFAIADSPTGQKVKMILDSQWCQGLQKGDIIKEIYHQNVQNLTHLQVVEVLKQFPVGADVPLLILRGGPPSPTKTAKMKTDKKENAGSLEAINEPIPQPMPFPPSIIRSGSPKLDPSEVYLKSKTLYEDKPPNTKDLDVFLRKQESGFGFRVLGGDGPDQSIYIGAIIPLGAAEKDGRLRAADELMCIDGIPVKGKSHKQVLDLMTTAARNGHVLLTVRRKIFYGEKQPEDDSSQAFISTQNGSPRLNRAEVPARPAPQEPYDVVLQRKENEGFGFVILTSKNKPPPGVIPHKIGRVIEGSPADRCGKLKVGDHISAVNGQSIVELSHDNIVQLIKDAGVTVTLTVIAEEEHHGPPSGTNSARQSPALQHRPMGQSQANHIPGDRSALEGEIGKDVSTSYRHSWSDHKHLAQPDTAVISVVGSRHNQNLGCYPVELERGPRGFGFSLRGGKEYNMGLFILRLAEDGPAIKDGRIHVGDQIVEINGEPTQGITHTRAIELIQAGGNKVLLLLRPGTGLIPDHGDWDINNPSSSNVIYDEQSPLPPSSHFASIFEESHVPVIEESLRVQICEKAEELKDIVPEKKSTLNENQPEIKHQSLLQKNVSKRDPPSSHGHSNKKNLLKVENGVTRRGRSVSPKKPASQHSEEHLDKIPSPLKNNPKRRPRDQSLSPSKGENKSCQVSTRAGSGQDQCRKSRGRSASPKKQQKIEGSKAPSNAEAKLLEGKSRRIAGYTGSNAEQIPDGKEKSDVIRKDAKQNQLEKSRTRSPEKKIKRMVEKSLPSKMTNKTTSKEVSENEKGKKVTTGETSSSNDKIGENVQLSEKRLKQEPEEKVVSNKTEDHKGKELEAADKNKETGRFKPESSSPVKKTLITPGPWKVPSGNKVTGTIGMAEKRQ
From the text: as §1, §2, §3, §4, §5

[7] = target: T6, PDZ protein (GST-PDZ fusion) (Homo sapiens, UniProt Q8TEW0); test: as above; conditions: PDZ PAR3, PDZ Domain 3
T6 construct: made in house; host or cells: E. coli (DH5alpha, BL21 or JM109)
From the text: as §1, §2, §3, §4, §5

DLG-1 = target: T7, DLG-1 (Homo sapiens, UniProt Q12959); test: G assay competition of short unlabeled peptides with biotinylated 20-mers (Example 6, TABLE 6); conditions: 100 = no competitor
T7 construct: protein spans from amino terminal end of first PDZ domain to carboxy-terminal end of third PDZ domain in frame with GST in vector; made in house; host or cells: E. coli DH5alpha
From the text: (§6) The potential for unlabeled 8-mers and 3-mers to compete for binding with biotinylated 20-mers to PDZ domains was examined. Interactions between a PDZ domain and two or more biotinylated peptides mimicking PDZ ligands identified through the ‘G Assay’ were used as model interactions. Short, 3 or 8 amino acid, unlabeled peptides were synthesized by standard techniques and used at variable concentrations with a set concentration of biotinylated 20-mer. Ability of both the 3-mer and 8-mer to inhibit longer peptide binding was observed, making PDZ:PL interactions an attractive target for design of small molecule or peptide therapeutics.
(§7) Peptides representing the C-terminal 3, 8 or 20 amino acids of a PDZ ligand were synthesized by standard FMOC chemistry and biotinylated if not used as an unlabeled competitor. Peptides three amino acids in length were acetylated to more properly mimic the peptide bond without introducing an amino-terminal charged group. Peptides were purified by reverse phase high performance liquid chromatography (HPLC) using a Vydac 218TP C18 Reversed Phase column having the dimensions of 10*25 mm, 5 um. Approximately 40 mg of peptide was dissolved in 2.0 ml of and aqueous solution of 49.9% acetonitrile and 0.1% Tri-Fluoro acetic acid (TFA). This solution was then injected into the HPLC machine through a […] syringe filter (Millipore). Buffers used to get a good separation are (A) distilled water with 0.1% TFA and (B) 0.1% TFA with Acetonitrile.
(§8) The G Assay was performed as described in EXAMPLE 3 with the exception that when a short competitor was used, 30 ul of competitor peptide (at twice the final concentration) was mixed with 30 ul biotinylated 20-mer (at twice the final concentration) and then added to the well.
(§9) PSD-95 and DLG-1 were incubated in the wells at 5 ug/ml as described in the G Assay protocol. Biotinylated 20-mer peptides used were 20 uM CLASP-2, 20 uM CD46, 10 uM CD95, and 10 uM KV1.3 (find sequences of peptides in TABLE 8). Competitors (unlabeled, short peptides) tested against each of the biotinylated peptides were 50 uM 8-mer of CD95, 100 uM 8-mer of CD46, 50 uM 8-mer of CLASP-2, and 1 mM and 500 uM acetylated 3-mer of CLASP-2. To deduce sequences, refer to TABLE 8. All absorbances were read at 450 nm after stopping TMB detection reaction at 30 min. Results were normalized in each group by dividing its A450 by the A450 of the PDZ/peptide binding in the absence of competitor and converting to percentage by multiplying by 100.

PSD-95 = target: T8, PSD-95 (Homo sapiens, UniProt P78352); test: as above; conditions: for % binding: 100 = no competitor
T8 construct: protein spans from amino terminal end of first PDZ domain to carboxy-terminal end of third PDZ domain in frame with GST in vector; made in house; host or cells: E. coli DH5alpha
From the text: as §6, §7, §8, §9

[8] = biotinylated 20-mer CD46 20 uM, competitor 500 uM
[9] = biotinylated 20-mer CD46 20 uM, competitor 1000 uM
[10] = biotinylated 20-mer CD95 10 uM, competitor 500 uM
[11] = biotinylated 20-mer CD95 10 uM, competitor 1000 uM
[12] = biotinylated 20-mer CLASP-2 20 uM, competitor 500 uM
[13] = biotinylated 20-mer CLASP-2 20 uM, competitor 1000 uM

T8 sequence (P78352 58-398 limits assumed): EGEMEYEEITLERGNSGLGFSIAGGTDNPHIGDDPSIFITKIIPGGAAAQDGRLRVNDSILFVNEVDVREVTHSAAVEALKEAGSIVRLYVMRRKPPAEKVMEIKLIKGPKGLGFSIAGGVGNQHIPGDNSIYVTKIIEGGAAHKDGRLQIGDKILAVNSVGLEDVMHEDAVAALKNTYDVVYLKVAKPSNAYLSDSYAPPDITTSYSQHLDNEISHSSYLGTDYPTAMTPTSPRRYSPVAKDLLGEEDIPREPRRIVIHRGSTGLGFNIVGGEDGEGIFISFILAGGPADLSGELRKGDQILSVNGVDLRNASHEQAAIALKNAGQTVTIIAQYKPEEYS
T7 sequence (Q12959 224-546 limits assumed): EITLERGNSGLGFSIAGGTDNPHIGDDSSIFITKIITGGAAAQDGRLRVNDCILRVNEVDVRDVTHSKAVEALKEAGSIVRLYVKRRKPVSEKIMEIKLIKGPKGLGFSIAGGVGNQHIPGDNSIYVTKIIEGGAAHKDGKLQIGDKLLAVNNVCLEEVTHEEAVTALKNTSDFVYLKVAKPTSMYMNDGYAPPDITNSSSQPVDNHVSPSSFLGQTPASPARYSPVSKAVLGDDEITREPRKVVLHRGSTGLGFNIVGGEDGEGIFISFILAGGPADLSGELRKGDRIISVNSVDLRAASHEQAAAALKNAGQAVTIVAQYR
T1 sequence (Q6P0Q8 whole entry, the tested form may be a part): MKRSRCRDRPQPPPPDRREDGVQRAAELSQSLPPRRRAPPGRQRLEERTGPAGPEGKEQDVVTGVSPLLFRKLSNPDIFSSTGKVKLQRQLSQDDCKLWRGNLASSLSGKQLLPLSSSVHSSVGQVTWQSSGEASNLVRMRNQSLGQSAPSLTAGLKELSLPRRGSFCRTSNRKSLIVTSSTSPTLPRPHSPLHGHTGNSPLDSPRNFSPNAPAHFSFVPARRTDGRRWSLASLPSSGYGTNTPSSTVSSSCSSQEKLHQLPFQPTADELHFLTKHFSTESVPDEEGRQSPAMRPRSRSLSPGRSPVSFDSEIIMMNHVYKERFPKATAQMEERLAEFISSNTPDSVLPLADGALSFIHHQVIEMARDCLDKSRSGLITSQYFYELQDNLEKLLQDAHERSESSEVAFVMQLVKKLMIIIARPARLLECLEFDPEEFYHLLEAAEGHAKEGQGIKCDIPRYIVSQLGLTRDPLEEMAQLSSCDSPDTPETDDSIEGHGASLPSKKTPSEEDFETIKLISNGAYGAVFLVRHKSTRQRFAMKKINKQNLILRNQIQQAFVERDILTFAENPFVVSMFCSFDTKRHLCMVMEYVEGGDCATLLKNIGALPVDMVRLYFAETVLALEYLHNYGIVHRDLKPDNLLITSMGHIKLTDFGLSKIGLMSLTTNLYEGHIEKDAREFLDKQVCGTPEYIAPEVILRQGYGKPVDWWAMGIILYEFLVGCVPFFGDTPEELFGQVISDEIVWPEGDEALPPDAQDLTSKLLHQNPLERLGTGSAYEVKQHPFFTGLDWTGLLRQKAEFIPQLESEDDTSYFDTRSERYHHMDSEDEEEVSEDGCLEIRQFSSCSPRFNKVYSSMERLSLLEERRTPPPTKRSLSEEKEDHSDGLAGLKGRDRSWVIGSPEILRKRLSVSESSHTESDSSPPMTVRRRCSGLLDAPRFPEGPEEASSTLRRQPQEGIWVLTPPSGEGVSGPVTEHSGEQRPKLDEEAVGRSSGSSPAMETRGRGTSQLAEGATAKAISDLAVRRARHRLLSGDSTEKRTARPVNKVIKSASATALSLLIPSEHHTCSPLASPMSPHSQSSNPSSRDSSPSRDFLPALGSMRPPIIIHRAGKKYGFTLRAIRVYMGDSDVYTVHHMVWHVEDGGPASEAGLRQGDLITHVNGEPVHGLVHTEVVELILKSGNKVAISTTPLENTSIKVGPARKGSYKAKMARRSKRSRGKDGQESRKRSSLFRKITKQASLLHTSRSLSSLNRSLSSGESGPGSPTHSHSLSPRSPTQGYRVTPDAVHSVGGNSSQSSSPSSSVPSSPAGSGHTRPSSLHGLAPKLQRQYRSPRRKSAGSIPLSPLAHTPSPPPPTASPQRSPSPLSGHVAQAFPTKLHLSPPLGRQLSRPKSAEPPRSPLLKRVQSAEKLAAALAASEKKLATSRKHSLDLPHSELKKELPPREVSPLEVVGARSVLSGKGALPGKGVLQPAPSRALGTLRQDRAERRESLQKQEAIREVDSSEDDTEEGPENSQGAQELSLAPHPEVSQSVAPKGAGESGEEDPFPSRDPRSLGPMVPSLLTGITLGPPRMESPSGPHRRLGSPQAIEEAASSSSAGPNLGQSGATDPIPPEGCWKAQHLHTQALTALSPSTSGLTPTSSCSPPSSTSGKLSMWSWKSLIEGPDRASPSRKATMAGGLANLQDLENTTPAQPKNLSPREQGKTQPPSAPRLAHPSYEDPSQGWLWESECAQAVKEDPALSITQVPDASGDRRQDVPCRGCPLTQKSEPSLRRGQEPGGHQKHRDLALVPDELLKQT
T4 sequence (Q12959 whole entry, the tested form may be a part): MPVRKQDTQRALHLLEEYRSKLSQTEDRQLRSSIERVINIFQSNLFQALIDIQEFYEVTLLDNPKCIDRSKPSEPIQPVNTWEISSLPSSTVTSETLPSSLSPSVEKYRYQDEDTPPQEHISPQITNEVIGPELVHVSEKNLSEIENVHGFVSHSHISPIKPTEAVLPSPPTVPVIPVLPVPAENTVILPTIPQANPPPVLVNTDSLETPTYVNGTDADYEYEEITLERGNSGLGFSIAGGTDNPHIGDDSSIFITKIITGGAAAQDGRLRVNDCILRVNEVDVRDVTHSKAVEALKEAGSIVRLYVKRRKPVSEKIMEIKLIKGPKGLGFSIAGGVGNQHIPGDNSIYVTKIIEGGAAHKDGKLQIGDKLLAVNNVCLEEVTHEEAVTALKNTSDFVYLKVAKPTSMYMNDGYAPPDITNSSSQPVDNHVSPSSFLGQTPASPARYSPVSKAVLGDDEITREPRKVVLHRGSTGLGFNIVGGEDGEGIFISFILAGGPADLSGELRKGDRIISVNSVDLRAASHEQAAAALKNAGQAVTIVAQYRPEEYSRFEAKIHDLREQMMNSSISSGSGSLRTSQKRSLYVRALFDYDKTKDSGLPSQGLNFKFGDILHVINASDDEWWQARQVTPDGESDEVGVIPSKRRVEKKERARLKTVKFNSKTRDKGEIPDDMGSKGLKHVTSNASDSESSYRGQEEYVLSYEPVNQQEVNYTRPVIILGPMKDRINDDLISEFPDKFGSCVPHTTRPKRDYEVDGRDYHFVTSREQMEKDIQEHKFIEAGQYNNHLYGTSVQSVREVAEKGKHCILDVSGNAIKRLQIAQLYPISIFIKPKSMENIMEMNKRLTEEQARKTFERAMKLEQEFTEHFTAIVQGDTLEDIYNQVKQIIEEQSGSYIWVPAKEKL
T6 sequence (Q8TEW0 whole entry, the tested form may be a part): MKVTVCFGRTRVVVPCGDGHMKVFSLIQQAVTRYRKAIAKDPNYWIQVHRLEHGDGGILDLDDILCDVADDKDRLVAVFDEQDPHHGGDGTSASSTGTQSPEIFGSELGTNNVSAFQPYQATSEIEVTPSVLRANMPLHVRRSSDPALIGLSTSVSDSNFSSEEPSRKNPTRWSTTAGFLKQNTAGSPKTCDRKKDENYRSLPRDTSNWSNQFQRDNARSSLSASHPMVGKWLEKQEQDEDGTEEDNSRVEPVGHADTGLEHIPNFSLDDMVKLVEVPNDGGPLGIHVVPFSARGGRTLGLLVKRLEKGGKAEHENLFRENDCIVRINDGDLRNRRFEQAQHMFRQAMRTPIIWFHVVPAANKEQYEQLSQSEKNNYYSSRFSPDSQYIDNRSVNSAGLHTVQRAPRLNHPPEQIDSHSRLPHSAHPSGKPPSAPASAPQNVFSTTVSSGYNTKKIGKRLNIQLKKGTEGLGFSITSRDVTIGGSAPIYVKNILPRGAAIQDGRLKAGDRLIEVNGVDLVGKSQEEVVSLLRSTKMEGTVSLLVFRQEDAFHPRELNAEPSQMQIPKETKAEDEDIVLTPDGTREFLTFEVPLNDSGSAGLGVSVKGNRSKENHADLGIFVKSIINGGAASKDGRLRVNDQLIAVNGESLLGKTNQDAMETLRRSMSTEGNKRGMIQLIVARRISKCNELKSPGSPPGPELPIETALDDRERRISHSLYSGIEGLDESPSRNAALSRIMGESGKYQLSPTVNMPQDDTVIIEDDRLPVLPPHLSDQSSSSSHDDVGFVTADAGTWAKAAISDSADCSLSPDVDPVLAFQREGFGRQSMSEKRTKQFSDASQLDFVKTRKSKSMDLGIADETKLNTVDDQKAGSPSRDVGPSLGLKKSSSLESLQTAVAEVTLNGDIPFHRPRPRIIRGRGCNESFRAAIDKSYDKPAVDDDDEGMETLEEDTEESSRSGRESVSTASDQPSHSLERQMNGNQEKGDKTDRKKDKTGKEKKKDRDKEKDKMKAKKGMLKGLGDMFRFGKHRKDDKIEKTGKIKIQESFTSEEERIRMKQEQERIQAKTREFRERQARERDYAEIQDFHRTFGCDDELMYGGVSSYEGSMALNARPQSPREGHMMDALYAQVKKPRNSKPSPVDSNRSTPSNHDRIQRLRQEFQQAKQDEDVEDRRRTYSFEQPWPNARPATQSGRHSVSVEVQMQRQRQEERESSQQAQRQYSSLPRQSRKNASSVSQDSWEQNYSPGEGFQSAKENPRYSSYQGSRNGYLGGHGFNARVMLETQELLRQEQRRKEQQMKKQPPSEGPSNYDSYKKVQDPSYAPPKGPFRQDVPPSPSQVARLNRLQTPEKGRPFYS

For “KDSRPSFVGSSSGHTSTTL (Biotin-KDSRPSFVGSSSGHTSTTL) [CDw128B]”, the Classification ([1]; PDZ KIAA807) was 5 (A450 nm of 4 more than 2× repeated), the Classification ([1]; PDZ KIAA0807(S), PDZ Domain 1) was 5 (A450 nm of 4 more than 2× repeated) and the Classification [2] was 2 (A450 nm 1-2). The Classification [3] was 3 (A450 nm 2-3).
For “SSPTYRALLLQGPSQSSSEA (Biotin-SSPTYRALLLQGPSQSSSEA)”, the Classification [4] was 1 (A450 nm 0-1).
“VDPNSPAAKKKYVSYNNLVI [GLUR7 (metabotropic glutamate receptor)]” was tested, and the Classification [5] was 1 (A450 nm 0-1), the Classification [6] was 1 (A450 nm 0-1) and the Classification [7] was 2 (A450 nm 1-2).
With “SVV [CLASP-2 3-mer, acetylated peptide of the C-terminal 3 amino acids of CLASP-2]” the “% binding” value (DLG-1; [8]) was 72%, the “% binding” value (DLG-1; [9]) was 45% and the “% binding” value (DLG-1; [10]) was 51%. For the same substance, the “% binding” value (DLG-1; [11]) was 46%, the “% binding” value (DLG-1; [12]) was 61% and the “% binding” value (DLG-1; [13]) was 59%. For the same substance, the “% binding” value (PSD-95; [8]) was 75%, the “% binding” value (PSD-95; [9]) was 59% and the “% binding” value (PSD-95; [10]) was 55%. For the same substance, the “% binding” value (PSD-95; [11]) was 55%, the “% binding” value (PSD-95; [12]) was 82% and the “% binding” value (PSD-95; [13]) was 63%. For the same substance, the “% binding” value (PSD-95; biotinylated 20-mer KV1.3 10 uM, competitor 500 uM) was 81%, the “% binding” value (PSD-95; biotinylated 20-mer KV1.3 10 uM, competitor 1000 uM) was 50% and the “reduction of labeled ligand binding” value (PSD-95; competitor 1 mM, 50-100-fold excess, summary of TABLE 6, PDZ not given) was “up to 50%”.
